Measurements: patent US20260028422A1 (CONCEPT TO MEDICINE BIOTECH, published 2026)

T1: human MerTK-his protein (human, UniProt Q12866 21-505)
T1 construct: extracellular domain; also called hMerTK-His; human MerTK protein
T1 sequence (looked up): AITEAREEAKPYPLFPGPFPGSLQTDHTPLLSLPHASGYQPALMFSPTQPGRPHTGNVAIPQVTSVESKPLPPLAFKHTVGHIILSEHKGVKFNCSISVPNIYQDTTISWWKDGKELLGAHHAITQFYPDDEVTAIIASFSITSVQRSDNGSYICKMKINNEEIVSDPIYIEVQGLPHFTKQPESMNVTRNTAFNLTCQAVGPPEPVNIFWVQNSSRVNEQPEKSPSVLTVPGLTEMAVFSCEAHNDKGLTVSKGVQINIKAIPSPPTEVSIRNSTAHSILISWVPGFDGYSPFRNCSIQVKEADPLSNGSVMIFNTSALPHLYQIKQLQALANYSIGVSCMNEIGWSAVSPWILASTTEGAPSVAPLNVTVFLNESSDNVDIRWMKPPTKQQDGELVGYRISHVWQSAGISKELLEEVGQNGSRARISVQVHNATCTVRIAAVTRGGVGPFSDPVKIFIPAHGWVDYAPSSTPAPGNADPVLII

T2: human MerTK expressed on cells (human, UniProt Q12866 21-999)
T2 construct: whole, on cells; also called CHO-K1-hMerTK; CHO-K1-MerTK
T2 sequence (looked up): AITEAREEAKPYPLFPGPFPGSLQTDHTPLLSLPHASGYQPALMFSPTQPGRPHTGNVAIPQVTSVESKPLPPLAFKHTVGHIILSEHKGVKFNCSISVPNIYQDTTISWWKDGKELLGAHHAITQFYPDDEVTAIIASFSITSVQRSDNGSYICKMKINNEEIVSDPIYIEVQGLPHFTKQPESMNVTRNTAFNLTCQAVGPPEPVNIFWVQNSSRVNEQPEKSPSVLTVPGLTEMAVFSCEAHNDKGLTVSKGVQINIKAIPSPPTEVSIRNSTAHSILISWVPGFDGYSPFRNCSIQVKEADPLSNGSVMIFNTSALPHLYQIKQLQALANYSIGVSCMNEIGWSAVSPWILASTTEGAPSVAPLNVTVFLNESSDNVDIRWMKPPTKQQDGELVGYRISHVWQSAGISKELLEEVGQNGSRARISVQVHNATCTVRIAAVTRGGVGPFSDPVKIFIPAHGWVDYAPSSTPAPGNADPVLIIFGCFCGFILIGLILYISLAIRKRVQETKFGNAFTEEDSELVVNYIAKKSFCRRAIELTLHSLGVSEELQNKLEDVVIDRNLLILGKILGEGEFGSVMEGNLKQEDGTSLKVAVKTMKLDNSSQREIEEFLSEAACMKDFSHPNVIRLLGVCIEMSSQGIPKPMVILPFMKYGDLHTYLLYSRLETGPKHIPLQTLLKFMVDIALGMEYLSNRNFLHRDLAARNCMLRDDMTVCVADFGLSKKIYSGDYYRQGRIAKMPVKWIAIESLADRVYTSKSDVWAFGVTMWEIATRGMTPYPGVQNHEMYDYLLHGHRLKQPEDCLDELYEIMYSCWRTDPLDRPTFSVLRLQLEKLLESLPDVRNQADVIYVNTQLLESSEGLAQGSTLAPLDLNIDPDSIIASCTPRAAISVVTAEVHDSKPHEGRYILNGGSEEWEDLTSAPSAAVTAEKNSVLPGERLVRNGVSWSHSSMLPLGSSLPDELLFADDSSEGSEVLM

T3: cyno MerTK-his protein (cynomolgus, UniProt A0A2K5V1H9 27-505)
T3 construct: also called cyno MerTK protein; Cynomolgus
T3 sequence: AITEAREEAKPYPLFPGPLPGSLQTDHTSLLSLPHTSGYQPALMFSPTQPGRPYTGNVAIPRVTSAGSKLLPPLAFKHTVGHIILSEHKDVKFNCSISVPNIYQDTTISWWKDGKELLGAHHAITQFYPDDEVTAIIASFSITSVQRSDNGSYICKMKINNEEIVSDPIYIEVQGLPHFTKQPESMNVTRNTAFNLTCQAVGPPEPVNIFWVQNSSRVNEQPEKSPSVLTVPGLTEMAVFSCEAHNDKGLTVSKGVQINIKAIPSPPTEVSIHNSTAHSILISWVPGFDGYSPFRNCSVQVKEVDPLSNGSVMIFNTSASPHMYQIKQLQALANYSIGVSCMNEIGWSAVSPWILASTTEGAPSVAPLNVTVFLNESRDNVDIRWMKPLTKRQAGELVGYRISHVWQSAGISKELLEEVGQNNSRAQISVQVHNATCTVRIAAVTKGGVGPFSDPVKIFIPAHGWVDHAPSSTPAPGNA


Assays:
[1] = target: T1, human MerTK-his protein; assay: ELISA, plate coated with human MerTK-his, OD 450nm
Procedure: To evaluate the binding activity, the chimeric mAbs were subjected to ELISA test. Briefly, 96-well plates were coated with human or cyno MerTK-his protein at 2 μg/mL in PBS, 100 μL/well at 4° C. overnight, then blocked with 150 μL/well of 1% BSA. Five-fold dilutions of MerTK antibodies starting from 20 nM were added to each well and incubated for 1 hour at room temperature. The plates were washed with PBS/Tween-20 and then incubated with goat anti-human IgG Fe antibody conjugated with Horse Radish Peroxidase (HRP) for 30 minutes (mins) at room temperature. After washing, the plates were developed with TMB substrate and subsequent stop solution was added to complete the reaction. The signal from each well was read by spectrophotometer at OD 450 nm.
To evaluate the antigen binding activity, the humanized antibodies were subjected to ELISA test as described before.

[2] = target: T1, human MerTK-his protein; assay: SPR Biacore 8K, antibody captured on Protein A chip, 50 nM antigen
Procedure: To explore whether the humanized antibodies could maintain their binding kinetics, affinity ranking were performed with Biacore™. The antibodies were captured with a Protein A chips. Human MerTK-his protein at 50 nM was injected over captured antibodies for 180 s at a flow rate of 30 μL/min. The antigen was allowed to dissociate for 600 s. The experiment was carried out on a Biacore™ 8K. Data analysis was carried out using Biacore™ 8K evaluation software.

[3] = target: T2, human MerTK expressed on cells; assay: FACS on CHO-K1 cells overexpressing human MerTK, MFI (PE)
Procedure: To evaluate the binding property to the antigen expressed on the cells, the chimeric monoclonal antibodies were analyzed for their binding to human MerTK overexpressed on CHO-K1 cells by FACS. Briefly, human MerTK overexpressing CHO-K1 (CHO-K1-MerTK) cells were firstly incubated with 5-fold serially diluted mAbs starting at 20 nM at 4° C. for 1 hour. After washing with FACS buffer, the PE conjugated anti-human IgG-Fc secondary antibody was added to each well and incubated at 4° C., for 30 mins. The mean fluorescence intensity (MFI) of PE were evaluated by QuantAnalyzer 16.

[4] = target: T3, cyno MerTK-his protein; assay: ELISA, plate coated with cyno MerTK-his, anti-human IgG Fc-HRP, OD 450nm

Row | Binder | EC50 [1] [nM] | Kd [2] [nM] | koff [2] [s⁻¹] | kon [2] [M⁻¹ s⁻¹] | EC50 [3] [nM] | Top [3] | EC50 [4] [nM]
1 | 10F7D9 chimeric monoclonal antibody (antibody, V domains shown) VH: QIQLVQSGPELKKPGETVKISCKASGYTFTNYGMNWVKQAPGKGLKWMGWINTYTGEPTYADDFKGRFAFSLETSASTAYLQINNLKNEDLATYFCATYGHYAWFAYWGQGTLVTVSA VL: QIVLSQSPAILSASPGEKVTMTCRASSSVSYMHWYQQKSGSSPKPWIYATSNLASGVPARFSGSGSGTSYSLTISRVEAEDAATYFCQQWGTKPLTFGAGTKLELK | 0.024 |  |  |  |  |  | 
2 | h13B4.v16 benchmark antibody (antibody, V domains shown) VH: EVQLVESGEGLVQPGGSLRLSCAASGFSLSSYAMGWVRQAPGKGLEYVGIINSYGNTYYANWAKGRFTISRDNSKNTVYLQMGSLRAEDMAVYYCARDPGVSSNLWGRGTLVTVSS VL: DIQMTQSPSTLSASVGDRVTITCQASQNIYSGLAWYQQKPGKAPKLLIYGASKLASGVPSRFSGSGSGTEFTLTISSLQPDDFATYYCQATYYSSNSVAFGGGTKVEIK |  |  |  |  | 0.16 | 4950 MFI (PE) | 0.027
3 | 276C2D1 chimeric monoclonal antibody (antibody, V domains shown) VH: QVQLQQSGPELVKPGASVKLSCKASGYTFTSYDINWVKQRPGLGLEWIGWIYPRDGYTKYNEKFKGKATLAVDTSSSTAYMELHSLTSEDSAVYFCARGYYSNLYYFDYWGQGTTLTVSS VL: EVVLTQSPPTMAASPGEKITITCSASSSISSNYLHWYQQKPGFSPKLLIYRTSNLASGVPARFSGSGSGTSYSLTIGTMEAEDVATYYCQQGRSIPLTFGAGTKLELK |  |  |  |  | 0.04 | 7750 MFI (PE) | 
4 | 293C2B7 chimeric monoclonal antibody (antibody, V domains shown) VH: QVQLQQSGPELVKPGASVKLSCKASGYTFTSYDINWVKQRPGQGLEWIGWIYPRDGYTKYKEKFKGKATLTVDTSSSTAYMELHSLTSEDSAVYFCARGFYSNLYYFDYWGQGTTLTVSS VL: EIVLTQSPTTMATSPGEKITITCSASSSISSNYLHWYQQKPGFSPKLLIYRTSNLASGVPDRFSGSGSGTSYSLTIGTMEAEDVATYYCQQGRSIPLTFGAGTKLELK |  |  |  |  | 0.064 | 7700 MFI (PE) | 
5 | 265F11B5 chimeric monoclonal antibody (antibody, V domains shown) VH: QVQLQQSGPELVKPGASVRLSCKASGYTFTTYDINWVKQRPGLGLEWIGWIYPRDGYTKYNEKFKGRATLAVDTSSSTAYMELHSLTSEDSAVYFCTRGYYDNLYYFDYWGQGTTLTVSS VL: EIVLTQSPTTVAASPGEKITITCSASSIISSNYFHWYQQRPGFSPKLLIYRTSNLASGVPARFSGSGSGTSYSLTIGTMEAEDVATYYCQQGRSVPLTFGAGTKLELK | 0.036 | 0.392 | 7.78e-05 | 199000 | 0.061 | 9460 MFI (PE) | 

Continued by falling EC50 [3], values first:

Row | EC50 [1] [nM] | Kd [2] [nM] | koff [2] [s⁻¹] | kon [2] [M⁻¹ s⁻¹] | EC50 [3] [nM] | Top [3] | EC50 [4] [nM] | Binder
6 | 0.095 | 34.9 | 0.000785 | 22500 | 0.19 | 5630 MFI (PE) |  | 254B4D9 chimeric monoclonal antibody (antibody, V domains shown) VH: QIQLVQSGPELKKPGETVKISCKASGYTFTAYGMSWVKQAPGKGLQWMGWINTYSGVPTYTDDFKGRFAFSLEASASTAFLQINNLKNEDTSTYFCARRAAVVAKYWYFDVWGTGTTVTVSS VL: DIQMTQSPSSLFASLGGKVIITCKSSQDINKRISWYQHKPGKGPRLLIHSTSSLQPGIPLRFSGSGSGRDYSFSISNLEPEDIATYFCLQYDNLLTFGAGTKLELK
7 |  |  |  |  | 0.076 | 8350 MFI (PE) |  | 300A5A3 chimeric monoclonal antibody (antibody, V domains shown) VH: QVQLQQSGPELVKPGASVKLSCKASGYTFTTYDINWVKQRPGLGLEWIGWIYPRDGYTKYNEKFKGKATLAVDTSSSTASMELHSLTSEDSAVYFCARGYYDNLYYFDNWGPGTTLTVSS VL: ENVLTQSPTTVAASPGEKITITCSASSIISSNYLHWYQQKPGFSPKLLIYRTSNLASGVPARFSGSGSGTSYSLTIGTMEAEDAATYYCQQGRSVPLTFGAGTKLELK
8 |  |  |  |  | 0.044 | 8310 MFI (PE) |  | 280C6A3 chimeric monoclonal antibody (antibody, V domains shown) VH: QVQLQQSGPELVKPGASVKLSCKASGYSFTTYDINWVKQRPGQGLEWIGWIYPRDGSTKYNEKFKGKATLTLDTSSNTAYMGLHSLTSEDSAVYFCARGYYDNLYYFDYWGQGTTLTVSS VL: EIVLTQSPTTMAASPGEKITITCSASSSVSSNYLHWYQQKPGFSPKLLIYRTSNLASGVPARFSGSGSGTSYSLTIGTMEAEDVATYYCQQGRIVPLTFGAGTKLELK
